We go through two molecules from patent US20160046705A1 (Amgen, published 2016).

The target in this experiment is T1, human sclerostin (human, UniProt Q9BQB4 24-213, biotin-labeled (site not stated)).
T1 construct: also called biotin-labeled human sclerostin; SOST
T1 sequence: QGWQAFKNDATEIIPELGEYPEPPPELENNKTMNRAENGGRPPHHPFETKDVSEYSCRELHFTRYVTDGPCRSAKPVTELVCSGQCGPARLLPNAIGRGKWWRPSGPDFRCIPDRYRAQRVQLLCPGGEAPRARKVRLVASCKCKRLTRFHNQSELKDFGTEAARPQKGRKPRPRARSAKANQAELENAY
Briefly: competition alpha screen, increasing antibody against his-tagged LRP6 / biotin-labeled human sclerostin.

B1: 20C3 (antibody, V domains shown)
VH: QVQLQESGPGLVKPSETLSLTCTVSGGSISSYYWSWIRQPPGKGLEWIGYISDSGSTNYNPSLKSRIPISVDTSKNQFSLKLSSVTAADTAVYYCARWQLAHDAFDIWGQGTMVTVSS
VL: QSALTQPASVSGSPGQSITISCTGTSSDVGGYNYVSWYQQHPGKAPKLMIYEVSYRPSGVSNRFSGSKSGSTASLTISGLQPEDEADYYCSSYAISSTLVFGGGTKMTVL
notes: Parental anti-sclerostin antibody, described as directed against the loop 2 region of sclerostin
For B1, the binding result is on record as “binds”.

B2: 27H6 (antibody, V domains shown)
VH: EVQLVESGGGLVQPGGSLRLSCAASGFTFSSYSMNWVRQAPGKGLEWVSYISSSGSSIYYADSVKGRFTISRDNAKNSLYLQMNSLRDEDTAVYYCARERYYGDTPFDYWGQGTLVTVSS
VL: DIVMTQTPLSLPVTPGEPASISCRSSQSLLNSVDGSTNLDWYLQKPGQSPQLLIYTLSYRASGVPDRFSGSGSGTDFTLKISRVEAEDVGVYYCMQRIEFPLTFGGGTKVEIK
notes: also called sclerostin antibody 27H6
Consider B2, for which the binding result is listed as “binds”.
